Assays:
Test in all cases: MST
[1] = tested on: SUV420H1(1-390) Y349A (human); conditions: 40 uM SAM; text says NCP H2A, legend H4K20M; histone H4 K20M; MST: 20 mM HEPES pH 7.5, 50 mM NaCl (listed twice), 50 mM KCl, 1 mg/mL BSA, 0.05% Tween-20, 40 uM SAM, 2 mM DTT, room temperature; EMSA: 25 mM HEPES pH 7.5 …
[2] = tested on: SUV420H1(1-390) R357H (human); conditions: 40 uM SAM; text says NCP H2A, legend H4K20M; histone H4 K20M; MST: 20 mM HEPES pH 7.5, 50 mM NaCl (listed twice), 50 mM KCl, 1 mg/mL BSA, 0.05% Tween-20, 40 uM SAM, 2 mM DTT, room temperature; EMSA: 25 mM HEPES pH 7.5 …
[3] = tested on: SUV420H1(1-390) S283L (human); conditions: histone H4 K20M; MST: 20 mM HEPES pH 7.5, 50 mM NaCl (listed twice), 50 mM KCl, 1 mg/mL BSA, 0.05% Tween-20, 40 uM SAM, 2 mM DTT, room temperature; EMSA: 25 mM HEPES pH 7.5 …
[4] = tested on: SUV420H1(1-390) R257A (human); conditions: histone H4 K20M; MST: 20 mM HEPES pH 7.5, 50 mM NaCl (listed twice), 50 mM KCl, 1 mg/mL BSA, 0.05% Tween-20, 40 uM SAM, 2 mM DTT, room temperature; EMSA: 25 mM HEPES pH 7.5 …
[5] = tested on: SUV420H1(1-390) K258A (human); conditions: histone H4 K20M; MST: 20 mM HEPES pH 7.5, 50 mM NaCl (listed twice), 50 mM KCl, 1 mg/mL BSA, 0.05% Tween-20, 40 uM SAM, 2 mM DTT, room temperature; EMSA: 25 mM HEPES pH 7.5 …
[6] = tested on: SUV420H1(1-390) R220A (human); conditions: 40 uM SAM; text says NCP H2A, legend H4K20M; histone H4 K20M; MST: 20 mM HEPES pH 7.5, 50 mM NaCl (listed twice), 50 mM KCl, 1 mg/mL BSA, 0.05% Tween-20, 40 uM SAM, 2 mM DTT, room temperature; EMSA: 25 mM HEPES pH 7.5 …
[7] = tested on: SUV420H1(1-390) R286A (human); conditions: histone H4 K20M; MST: 20 mM HEPES pH 7.5, 50 mM NaCl (listed twice), 50 mM KCl, 1 mg/mL BSA, 0.05% Tween-20, 40 uM SAM, 2 mM DTT, room temperature; EMSA: 25 mM HEPES pH 7.5 …
[8] = tested on: SUV420H1(1-390) S255F (human); conditions: histone H4 K20M; MST: 20 mM HEPES pH 7.5, 50 mM NaCl (listed twice), 50 mM KCl, 1 mg/mL BSA, 0.05% Tween-20, 40 uM SAM, 2 mM DTT, room temperature; EMSA: 25 mM HEPES pH 7.5 …
[9] = tested on: SUV420H1(1-390) R357A (human); conditions: 40 uM SAM; text says NCP H2A, legend H4K20M; histone H4 K20M; MST: 20 mM HEPES pH 7.5, 50 mM NaCl (listed twice), 50 mM KCl, 1 mg/mL BSA, 0.05% Tween-20, 40 uM SAM, 2 mM DTT, room temperature; EMSA: 25 mM HEPES pH 7.5 …
[10] = tested on: SUV420H1(1-390) R352A (human); conditions: 40 uM SAM; text says NCP H2A, legend H4K20M; histone H4 K20M; MST: 20 mM HEPES pH 7.5, 50 mM NaCl (listed twice), 50 mM KCl, 1 mg/mL BSA, 0.05% Tween-20, 40 uM SAM, 2 mM DTT, room temperature; EMSA: 25 mM HEPES pH 7.5 …

**Q.** With NCP H2A, H4K20M as the substance, how does the Kd [1] read?
**A.** The Kd was 108 nM.

**Q.** And the Kd [2]?
**A.** Its Kd is 83 nM.

**Q.** And the Kd [3]?
**A.** Its Kd is 85 nM.

**Q.** And the Kd [4]?
**A.** The Kd was 144 nM.

**Q.** What about the Kd [5] of the same substance?
**A.** Its Kd is 112 nM.

**Q.** And the Kd [6]?
**A.** Its Kd is 93 nM.

**Q.** And the Kd [7]?
**A.** The Kd was 323 nM.

**Q.** What about the Kd [8] of the same substance?
**A.** Its Kd is 182 nM.

**Q.** And the Kd [9]?
**A.** The Kd was 213 nM.

**Q.** What about the Kd [10] of the same substance?
**A.** Its Kd is 220 nM.

— PMC10697951
